Data set [1] deals with Hexa-histidine-tagged H. nea CsoCbbQ (Hneap_0905) (Halothiobacillus neapolitanus). Briefly: SEC; size exclusion data of recombinant CsoCbbQ (Supplementary Fig. 2); conditions not shown.
For data set [2] the target is unchanged. The data set is described as follows: crystal structure; His6-tagged CsoCbbQ crystallised with ATP in the mother liquor, ADP bound; 22 C, 0.1 M HEPES pH 7.5, 6% PEG-8000, 8% ethylene glycol; two molecules per asymmetric unit, hexamer by crystal symmetry.
In data set [3] the target is T1, N-terminal histidine-tagged CsoCbbO (Hneap_0910) (Halothiobacillus neapolitanus, UniProt D0KZ80 1-788).
T1 construct: CsoCbbO, cso-associated CbbO of Halothiobacillus neapolitanus, locus tag Hneap_0910; 788 amino acids, VWA domain in its C-terminus; amplified from genomic DNA with primers from the ATG to the stop codon; Cloned into the BamHI and HindIII sites of pETDuet-1; It was insoluble when expressed alone in E. coli; also called HT-CbbO; hisCsoCbbO; not shown: His6, N-terminal, kept
T1 sequence (looked up): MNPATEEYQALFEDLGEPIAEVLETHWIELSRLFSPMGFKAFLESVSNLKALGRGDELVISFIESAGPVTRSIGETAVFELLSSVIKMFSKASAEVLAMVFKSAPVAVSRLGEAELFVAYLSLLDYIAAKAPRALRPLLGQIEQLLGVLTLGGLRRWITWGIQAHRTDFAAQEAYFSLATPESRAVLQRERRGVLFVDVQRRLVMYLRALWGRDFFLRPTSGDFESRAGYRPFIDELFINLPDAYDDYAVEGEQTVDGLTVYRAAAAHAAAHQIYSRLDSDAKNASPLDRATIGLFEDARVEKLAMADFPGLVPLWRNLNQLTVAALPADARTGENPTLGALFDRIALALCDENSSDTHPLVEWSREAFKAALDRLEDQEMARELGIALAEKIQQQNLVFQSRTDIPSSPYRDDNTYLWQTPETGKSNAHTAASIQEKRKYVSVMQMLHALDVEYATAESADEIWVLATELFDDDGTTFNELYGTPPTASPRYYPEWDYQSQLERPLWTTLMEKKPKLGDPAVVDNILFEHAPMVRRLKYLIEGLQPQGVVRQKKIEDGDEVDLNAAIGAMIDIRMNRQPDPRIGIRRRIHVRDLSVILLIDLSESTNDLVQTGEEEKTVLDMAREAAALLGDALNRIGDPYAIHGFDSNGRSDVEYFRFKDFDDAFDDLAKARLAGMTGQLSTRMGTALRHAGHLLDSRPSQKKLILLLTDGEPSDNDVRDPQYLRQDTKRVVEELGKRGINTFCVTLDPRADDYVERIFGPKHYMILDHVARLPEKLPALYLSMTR
Briefly: SEC; purified CsoCbbO/Q complex on Superdex 200 10/300 GL; 10 mM Tris-HCl pH 8.0, 100 mM NaCl, 0.25 ml/min; mass estimated against protein standards. Conditions: both partners purified.

Data set [4] concerns the molecule itself. The data set is described as above.

On to “Hexa-histidine-tagged H. nea CsoCbbQ (Hneap_0905) (enzyme)”, for which the stoichiometry N in data set [1] and in data set [2] was 6 in each case.

B1: non-His6-tagged CsoCbbQ (NT-CbbQ) (enzyme, Halothiobacillus neapolitanus, UniProt D0KZ75 1-267, looked up)
chain: MTQNADQYRVRKEPYYRAVQDEIELYRAGYEARIPMMLKGPTGCGKSRFVEHMAWKLNRPLITIACNEDMTASDLVGRYLLDKDGTRWQDGPLTVAARIGAICYLDEIVEARQDTIVVIHPLTDHRRVLPLEKKGELVEAHPDFQIVISYNPGYQSLMKDLKQSTKQRFGALDFDYPKPDIEAEIVSHEAGVDKDTAEKLVQIAQKARNLKGHGLDEGLSTRLLVYAGKLIAKGVDARAACTMTLVNPITDDVDMRDALDTVVKTFF
notes: CsoCbbQ of Halothiobacillus neapolitanus, locus tag Hneap_0905
For the molecule B1, the “stoichiometry N” value in data set [3] and in data set [4] was around 6 each time.

The record behind these values is article PMC4633670, “Structural Characterization of a Newly Identified Component of α-Carboxysomes: The AAA+ Domain Protein CsoCbbQ” (Scientific Reports, 2015).
